Test results reported in article PMC6711530, “Identification of zinc and Zur-regulated genes in Corynebacterium diphtheriae”.

B1: iutA (dip0169) DtxR binding site (dsDNA)
DNA 1: CCCTGTTTTAGCTTAGCCCTAGCTAATTTGGGG
DNA 2: CCCCAAATTAGCTAGGGCTAAGCTAAAACAGGG
B2: adhA (dip2114) site (dsDNA)
DNA 1: CCCTTCTAATGGTACCTATTTTCAATAGGTGGG
DNA 2: CCCACCTATTGAAAATAGGTACCATTAGAAGGG
B3: cmrA (dip2325) site (dsDNA)
DNA 1: CCCAATTATCGGTAATTATTTTCATTAAAAGGG
DNA 2: CCCTTTTAATGAAAATAATTACCGATAATTGGG
B4: cztA (dip1101) site 1 (dsDNA)
DNA 1: GGGTATCAGTACACATTATTTTCAATAAAGCCC
DNA 2: GGGCTTTATTGAAAATAATGTGTACTGATACCC
B5: cztA (dip1101) site 2 (dsDNA)
DNA 1: GGGCATAAATGAAAATATGGGCTATGCTGCCCC
DNA 2: GGGGCAGCATAGCCCATATTTTCATTTATGCCC

What was measured:
[1] = molecular target: T1, Zur (zinc uptake regulator) (Corynebacterium diphtheriae (strain of …, UniProt Q6NG23 1-142)); experiment: EMSA; 5 uM ZnCl2; 100 nM Zur, 1 nM oligo duplex; 10 mM Tris pH 7.5, 55 mM KCl, 1 mM DTT, 10% glycerol, 0.05% NP-40, 100 ug/ml BSA, 0.03 ug/ml salmon sperm DNA, 5 uM ZnCl2 (or Zn/EDTA titration 0.25-250 uM); temperature not stated; settings: protein: recombinant; tags: His-tag (pET30a); chain copies: 2; label: 5' biotin on strand 1; blunt
T1 sequence: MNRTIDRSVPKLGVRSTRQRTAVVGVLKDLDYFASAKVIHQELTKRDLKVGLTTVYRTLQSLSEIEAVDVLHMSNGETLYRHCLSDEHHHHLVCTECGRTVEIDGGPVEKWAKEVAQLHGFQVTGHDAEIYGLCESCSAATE

[2] = molecular target: T1, Zur (zinc uptake regulator); experiment: EMSA; 250 uM EDTA; 100 nM Zur, 1 nM oligo duplex; 10 mM Tris pH 7.5, 55 mM KCl, 1 mM DTT, 10% glycerol, 0.05% NP-40, 100 ug/ml BSA, 0.03 ug/ml salmon sperm DNA, 5 uM ZnCl2 (or Zn/EDTA titration 0.25-250 uM); temperature not stated; settings: protein: recombinant; tags: His-tag (pET30a); chain copies: 2; label: 5' biotin on strand 1; blunt

Row | Binder | binding result [1] | binding result [2]
1 | B1 | no binding | –
2 | B2 | – | binds
3 | B3 | – | binds
4 | B4 | binds | –
5 | B5 | binds | –
